From PMC6161111, “Design, Synthesis, In Vitro, and Initial In Vivo Evaluation of Heterobivalent Peptidic Ligands Targeting Both NPY(Y1)- and GRP-Receptors—An Improvement for Breast Cancer Imaging?” (Pharmaceuticals, 2018)
*1 amine or outer side, *2 acyl side, *3 side chain or, on linkers, in order; H or OH if unused. Where a SMILES comes first, the peptide text is derived from it. Bridges are numbered along the chain shown (N, C = ends). Roman numbers before positions name the chains, in order. [ ]: non-standard residue; d: D form. X1 = NC(=O)[C@H](CCCCNC(=O)CCC(C(=O)O)N1CCN(CC(=O)O)CCN(CC(=O)O)CC1)NC(=O)CCOCCOCCOCCOCCNC(=O)CN(CCCNC(=O)CCOCCOCCOCCOCCNC(=O)c1ccc(C=NOCC(=O)NCCOCCOCCOCCOCCC(=O)[*:2])cc1)CCCNC(=O)CCOCCOCCOCCOCCNC(=O)c1ccc(C=NOCC(=O)[*:1])cc1; Nle = CCCC[C@H](N)C(=O)O

Key:
[1] = Determination of radiotracer lipophilicity (logD, phosphate buffer/1-octanol); type: physicochemical; conditions: phosphate buffer (0.05 M, pH 7.4) / 1-octanol, six independent experiments
Description: Determination of radiotracer lipophilicity. The heterobivalent ligands (22–26) as well as the monomeric reference compounds (27 and 28) were radiolabeled with ^68Ga as described before and 2 µL of the product solution (~65 pmol of the respective radioligand) were added to a mixture of phosphate buffer (0.05 M, pH 7.4, 800 µL) and 1-octanol (800 µL) and incubated for 5 min at ambient temperature under vigorous shaking. Both phases were separated by centrifugation and 100 µL of each phase were measured for radioactivity in a gamma-counter. […] (cpm = counts per minute), cpmw = activity in the aqueous phase [cpm]. These experiments were performed six times independently.

[2] = tested on: T-47D cells; assay: In vitro cell uptake (internalization) study in T-47D cells; type: cell-based, human; conditions: after 4 h, % of total added activity
Description: Cell culture. All cell lines were grown in suitable culture medium at 37 °C in a humidified CO2 (5%) atmosphere. The human breast cancer cell lines T-47D, MDA-MB-231 and MCF-7 were grown in Dulbecco’s Modified Eagle Medium (DMEM), supplemented with 10% (v/v) fetal calf serum (FCS) and 1% (v/v) L-Glutamine. For a high expression of the NPY(Y1) receptor on T-47D cells, the medium for this cell line was further supplemented with 0.15% (w/v) β-estradiol. The BT-474 and PC-3 cell lines were grown in RPMI-1640 medium, also supplemented with 10% (v/v) fetal calf serum (FCS) and 1% (v/v) L-Glutamine.
Internalization studies. Cells (T-47D, MDA-MB-231, MCF-7, BT-474 and PC-3, 1.5 × 10^6 cells per well) were seeded into 6-well plates and incubated overnight at 37 °C in a humidified CO2 (5%) atmosphere. The next day, the medium was removed and the cells were washed twice with the respective medium without supplements (ice-cold, 1 mL) and incubated with 3.7–4.0 kBq (0.37–4.0 pmol) of the respective ^68Ga-radiolabeled ligand [^68Ga]22−[^68Ga]26, [^68Ga]27 or [^68Ga]28 (in 1.5 mL medium, containing 0.5% (w/v) BSA) for defined time-points of 1, 2, 3 or 4 h at 37 °C in a humidified CO2 (5%) atmosphere. A 1000-fold excess of the respective peptide (3 or 4) was used for blocking to determine the non-specific cell uptake. At each time point, the medium was removed and the cells were washed twice with the respective medium without supplements (ice-cold, 1 mL). Cells were treated twice with 1 mL glycine buffer (ice-cold, 50 mM glycine, 100 mM NaCl, pH 2.8) for 5 min at room temperature, followed by 2 mL NaOH solution (1 M) for 10 min at 37 °C. The supernatants were collected and the radioactivity measured in a gamma counter. The internalized and surface bound activity was expressed as percentage of measured to total added activity. Each data point was generated thrice in triplicates.

[3] = tested on: T-47D tumor-bearing mice; assay: Ex vivo biodistribution in T-47D tumor-bearing mice; conditions: mouse, in vivo
Description: (§1) In vivo experiments. All animal experiments were performed in compliance with the German animal protection laws and protocols of the local committee (Regierungspräsidium Karlsruhe, approval number: 35-9185.81/G-206/15). 20, six week old female immunodeficient Fox Chase SCID (CB17/Icr-Prkdc^scid/IcrIcoCrl) mice with an average weight of 20 g were subcutaneously implanted with 17β-estradiol pellets (0.36 mg/60 days). 4 days later, the tumors were induced by subcutaneous inoculation of 5 × 10^6 T-47D cells into the left flank of the […]. After induction, the tumors were allowed to grow for 8–10 weeks and reached a diameter of about 0.5 cm. For imaging, the animals were anaesthetized with isoflurane and injected with 5.5–8.0 MBq of the respective radioligand ([^68Ga]24, [^68Ga]24a or [^68Ga]24b) into the lateral tail vein. Dynamic PET images were acquired over 90 min and CT images were obtained within further 30 min. After the end of the diagnostic scan, the animals were sacrificed, the organs were collected and measured in a gamma-counter.

[4] = as above; conditions: female, Fox Chase SCID (CB17/Icr-Prkdc^scid/IcrIcoCrl), mouse, in vivo, iv, total radioactivity
Description: as §1

Compound	logD [1]	specific cell uptake [2]	adrenal glands uptake [3]	blood uptake [3]	bone uptake [3]	brain uptake [3]	heart uptake [3]	kidneys uptake [3]	large intestines uptake [3]	liver uptake [3]	lung uptake [3]	muscle uptake [3]	pancreas uptake [3]	small intestines uptake [3]	spleen uptake [3]	stomach uptake [3]	tail uptake [3]	tumor uptake [3]	tissue to tissue ratio at 130 min ([4]; tumor-to-blood ratio (T / B))	tissue to tissue ratio at 130 min ([4]; tumor-to-muscle ratio (T / M))
CCCC[C@H](NC(=O)[C@H](CCCNC(=N)N)NC(=O)[C@H](Cc1c[nH]c2ccccc12)NC(=O)[C@H](CCCCNC(=O)CON=Cc1ccc(C(=O)NCCCN(CCCNC(=O)c2ccc(C=NOCC(=O)NCCOCCOCCOCCOCCC(=O)N[C@@H](CCC(N)=O)C(=O)N[C@@H](Cc3c[nH]c4ccccc34)C(=O)N[C@@H](C)C(=O)N[C@H](C(=O)NCC(=O)N[C@@H](Cc3c[nH]cn3)C(=O)N[C@@H](CC(C)C)C(=O)N[C@@H](CCSC)C(N)=O)C(C)C)cc2)CC(=O)NCCOCCOCCOCCOCCC(=O)N[C@@H](CCCCNC(=O)CCC(C(=O)O)N2CCN(CC(=O)O)CCN(CC(=O)O)CC2)C(N)=O)cc1)NC(=O)[C@@H]1CCCN1C(=O)[C@H](CC(N)=O)NC(=O)[C@@H](N)[C@@H](C)CC)C(=O)N[C@@H](CCCNC(=N)N)C(=O)N[C@@H](Cc1ccc(O)cc1)C(N)=O (stereo partly shown) [[^68Ga]22, metal not drawn]	-1.57 ± 0.111	47.8 ± 6.5%																		
CCCC[C@H](NC(=O)[C@H](CCCNC(=N)N)NC(=O)[C@H](Cc1c[nH]c2ccccc12)NC(=O)[C@H](CCCCNC(=O)CON=Cc1ccc(C(=O)NCCOCCOCC(=O)NCCCN(CCCNC(=O)COCCOCCNC(=O)c2ccc(C=NOCC(=O)NCCOCCOCCOCCOCCC(=O)N[C@@H](CCC(N)=O)C(=O)N[C@@H](Cc3c[nH]c4ccccc34)C(=O)N[C@@H](C)C(=O)N[C@H](C(=O)NCC(=O)N[C@@H](Cc3c[nH]cn3)C(=O)N[C@@H](CC(C)C)C(=O)N[C@@H](CCSC)C(N)=O)C(C)C)cc2)CC(=O)NCCOCCOCCOCCOCCC(=O)N[C@@H](CCCCNC(=O)CCC(C(=O)O)N2CCN(CC(=O)O)CCN(CC(=O)O)CC2)C(N)=O)cc1)NC(=O)[C@@H]1CCCN1C(=O)[C@H](CC(N)=O)NC(=O)[C@@H](N)[C@@H](C)CC)C(=O)N[C@@H](CCCNC(=N)N)C(=O)N[C@@H](Cc1ccc(O)cc1)C(N)=O (stereo partly shown) [[^68Ga]23, metal not drawn]	-1.53 ± 0.109	45.8 ± 2.9%																		
CCCC[C@H](NC(=O)[C@H](CCCNC(=N)N)NC(=O)[C@H](Cc1c[nH]c2ccccc12)NC(=O)[C@H](CCCCNC(=O)CON=Cc1ccc(C(=O)NCCOCCOCCOCCOCCC(=O)NCCCN(CCCNC(=O)CCOCCOCCOCCOCCNC(=O)c2ccc(C=NOCC(=O)NCCOCCOCCOCCOCCC(=O)NCC(=O)N[C@@H](CC(C)C)C(=O)N[C@@H](Cc3c[nH]cn3)C(=O)N[C@H](C(=O)N[C@@H](CCSC)C(=O)N[C@@H](Cc3c[nH]c4ccccc34)C(=O)N[C@@H](CCC(N)=O)C(=O)N[C@@H](C)C(N)=O)C(C)C)cc2)CC(=O)NCCOCCOCCOCCOCCC(=O)N[C@@H](CCCCNC(=O)CCC(C(=O)O)N2CCN(CC(=O)O)CCN(CC(=O)O)CC2)C(N)=O)cc1)NC(=O)[C@@H]1CCCN1C(=O)[C@H](CC(N)=O)NC(=O)[C@@H](N)[C@@H](C)CC)C(=O)N[C@@H](CCCNC(=N)N)C(=O)N[C@@H](Cc1ccc(O)cc1)C(N)=O (stereo partly shown) [[^68Ga]24a, metal not drawn] (I: H-INPKWR[Nle]RY-NH2 / II: GLHVMWQA-NH2; linker I:4-II:N via X1)			0.74 ± 0.40 ID/g in %	0.39 ± 0.37 ID/g in %	0.13 ± 0.08 ID/g in %	0.03 ± 0.02 ID/g in %	0.18 ± 0.14 ID/g in %	29.72 ± 10.33 ID/g in %	0.24 ± 0.19 ID/g in %	5.54 ± 0.31 ID/g in %	0.28 ± 0.04 ID/g in %	0.26 ± 0.40 ID/g in %	0.15 ± 0.08 ID/g in %	0.43 ± 0.37 ID/g in %	0.49 ± 0.14 ID/g in %	0.39 ± 0.41 ID/g in %	0.46 ± 0.41 ID/g in %	0.21 ± 0.15 ID/g in %	0.5 ± 0.47	1.07 ± 1.14
